Assay results taken from IntAct's records for PubMed 16452984.

B1: Rap guanine nucleotide exchange factor 4 (Mus musculus), Q9EQZ6-3 (parent)
chain: MVAAHAAHSQSSAEWIACLDKRPLERSSEDVDIIFTRLKGVKAFEKFHPNLLRQICLCGYYENLEKGITLFRQGDIGTNWYAVLAGSLDVKVSETSSHQDAVTICTLGIGTAFGESILDNTPRHATIVTRESSELLRIEQEDFKALWEKYRQYMAGLLAPPYGVMETGSNNDRIPDKENVPSEKILRAGKILRIAILSRAPHMIRDRKYHLKTYRQCCVGTELVDWMIQQTSCVHSRTQAVGMWQVLLEDGVLNHVDQERHFQDKYLFYRFLDDEREDAPLPTEEEKKECDEELQDTMLLLSQMGPDAHMRMILRKPPGQRTVDDLEIIYDELLHIKALSHLSTTVKRELAGVLIFESHAKGGTVLFNQGEEGTSWYIILKGSVNVVIYGKGVVCTLHEGDDFGKLALVNDAPRAASIVLREDNCHFLRVDKEDFNRILRDVEANTVRLKEHDQDVLVLEKVPAGNRAANQGNSQPQQKYTVMSGTPEKILEHFLETIRLEPSLNEATDSVLNDFVMMHCVFMPNTQLCPALVAHYHAQPSQGTEQERMDYALNNKRRVIRLVLQWAAMYGDLLQEDDVAMAFLEEFYVSVSDDARMMAAFKEQLPELEKIVKQISEDAKAPQKKHKVLLQQFNTGDERAQKRQPIRGSDEVLFKVYCIDHTYTTIRVPVAASVKEVISAVADKLGSGEGLIIVKMNSGGEKVVLKSNDVSVFTTLTINGRLFACPREQFDSLTPLPEQEGPTTGTVGTFELMSSKDLAYQMTTYDWELFNCVHELELIYHTFGRHNFKKTTANLDLFLRRFNEIQFWVVTEVCLCSQLSKRVQLLKKFIKIAAHCKEYKNLNSFFAIVMGLSNVAVSRLALTWEKLPSKFKKFYAEFESLMDPSRNHRAYRLTAAKLEPPLIPFMPLLIKDMTFTHEGNKTFIDNLVNFEKMRMIANTARTVRYYRSQPFNPDAAQANKNHQDVRSYVRQLNVIDNQRTLSQMSHRLEPRRP

Variants of: B1
Settings: with rap1b_human RAP1B

effect of a mutation on the interaction | Variant
decreasing interaction strength | H452A
decreasing interaction strength | R886A
